Data on eight molecules can be found in patent US20170295781A1 (AGROSAVFE N V, published 2017).

Changes are numbered by the printed parent chain.

For test [1], the target named is potato lectin (Sigma) (potato) (UniProt Q9S8M0). Put plainly: ELISA-like assay, lambda-cyhalothrin microcapsules on potato lectin-coated wells, surface coverage 4%.
For test [2] the target is unchanged. Put plainly: ELISA-like assay, Uvitex microcapsules on wells coated with 5 ug/well potato lectin, surface coverage 4%. (ELISA stands for enzyme-linked immunosorbent assay.)
Test [3] shares this target. In words: ELISA-like assay, Uvitex OB microcapsules on potato lectin-coated wells, surface coverage 100%.
The target is the same in test [4]. Put plainly: ELISA-like assay, Uvitex OB microcapsules on potato lectin-coated wells, surface coverage 20%.
The target is the same in test [5]. Put plainly: ELISA-like assay, Uvitex microcapsules on wells coated with 5 ug/well potato lectin, surface coverage 100%.
Test [6] shares this target. In words: ELISA-like assay, lambda-cyhalothrin microcapsules on potato lectin-coated wells, surface coverage 20%.
The target is the same in test [7]. In words: ELISA-like assay, Uvitex OB microcapsules on potato lectin-coated wells, surface coverage 4%.
The target is the same in test [8]. In words: ELISA-like assay, Uvitex microcapsules on wells coated with 5 ug/well potato lectin, surface coverage 20%.
Test [9] shares this target. Put plainly: ELISA-like assay, lambda-cyhalothrin microcapsules on potato lectin-coated wells, surface coverage 100%.
The target in test [10] is T1, potato lectin (Sigma) (potato, UniProt Q9S8M0 23-323).
T1 construct: Bought glycoprotein coated on ELISA plates
T1 sequence (looked up): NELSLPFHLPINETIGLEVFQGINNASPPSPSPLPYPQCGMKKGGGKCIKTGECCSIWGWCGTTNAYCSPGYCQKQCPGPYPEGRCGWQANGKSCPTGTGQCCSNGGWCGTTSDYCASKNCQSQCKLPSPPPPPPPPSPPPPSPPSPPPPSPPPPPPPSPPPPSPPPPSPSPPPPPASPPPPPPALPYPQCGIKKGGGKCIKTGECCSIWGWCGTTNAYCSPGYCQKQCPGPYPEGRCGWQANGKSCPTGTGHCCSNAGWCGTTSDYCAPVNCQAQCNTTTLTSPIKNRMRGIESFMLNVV
In words: ELISA, potato lectin coated at 100 ug/ml, VHH at 3 ug/ml, anti-histidine detection. On the procedure:
ELISA plates (Maxisorp, Nunc) coated with 100 μl per well 100 μg/ml potato lectin (Sigma) in PBS were coated at 4° C. overnight and coating was continued at room temperature for 1 hour on the next day. Plates were washed three times with PBS/0.05%-TWEEN®-20 and blocked with 5% skimmed milk in PBS for 1 hour. VHH (3 μg/ml) were transferred to the potato lectin-coated plates and VHH antibody fragments were allowed to bind for 1 hour at room temperature. Bound VHH were detected with sequential incubations with monoclonal mouse anti-histidine antibodies (Abd Serotec) and rabbit anti-mouse IgG whole molecule antibodies conjugated with alkaline phosphatase (RaM/AP) (Sigma) in 1% MPBS/0.05%-TWEEN®-20. Unbound antibodies were removed by washing three times with PBS/0.05%-TWEEN®-20 after each antibody incubation. The plates were washed an additional two times with PBS and 100 μl pNPP disodium hexahydrate substrate (Sigma) was added to each well and the absorbance at 405 nm was measured (see Table 2).

The target of test [11] is T1, potato lectin (Sigma). In words: ELISA-like assay, Uvitex microcapsules on potato lectin-coated wells, 25-fold less microcapsules. On the procedure: An ELISA-like assay was performed using high bind half area microplates (Greiner Bio-One) coated with 5 μg/well potato lectin. Control wells included blank wells or wells coated with unrelated antigens. Plates were washed three times with PBS with 0.05%-TWEEN®-20 and blocked with 5% skimmed milk in PBS for 1 to 2 hours. VHH-coupled Uvitex-containing microcapsules were diluted to appropriate densities in 1% skimmed milk in PBS with 0.05%-TWEEN®-20. Five-fold serial dilution series were prepared and allowed to bind to the surface to compare binding of microcapsules coupled with monovalent or bivalent VHH. Microcapsules were added to the antigen-coated or control wells and allowed to bind for 1 hour. Unbound microcapsules were removed by washing five times with PBS with 0.05%-TWEEN®-20. The bottoms of ELISA plate wells were analyzed for bound microcapsules on a macrozoom microscope system (Nikon). Microcapsules were counted using Volocity image analysis software (Perkin Elmer). A DAPI filter was used to visualize Uvitex microcapsules. […] The surface area of microcapsules with coupled bivalent VHH was 15-fold above the surface area of blank microcapsules applied at this microcapsule density while the surface area of microcapsules with monovalent VHH was only six-fold above the surface area of blank microcapsules applied at this microcapsule density. […]

The target in test [12] is unrelated antigen. Put plainly: ELISA-like assay, Uvitex microcapsules on wells coated with unrelated antigen, surface coverage 20%.
Test [13] deals with unrelated antigen. In words: ELISA-like assay, Uvitex microcapsules on wells coated with unrelated antigen, surface coverage 100%.
The target of test [14] is unrelated antigen. In words: ELISA-like assay, Uvitex microcapsules on wells coated with unrelated antigen, surface coverage 4%.

For “unrelated control VHH coupled to microcapsules”, the counts of bound microcapsules in test [1] was 348 counts; in test [6], 709 counts; in test [9], 828 counts. For the same molecule, the values for the surface area of bound microcapsules (area (unit not given)) in test [2], in [5] and in test [8] were 19.2, 142 and 43.5, respectively. Further, the figures for the area of bound microcapsules (area (unit not given)) in test [3], in test [4] and in test [7] were 16.7, 35.4 and 7.53, respectively.

B1: VHH 5D4 (VHH)
VHH: QVQLQESGGGLVQPGGSLRLSCAASGFDMRRFGIGWFRQVAGKEREGVSCSNVHDGTTYYTNDVKGRFTIVRDNTKNMLYLQMNKLRPEDTAVYSCATTDCEATAWGTYRGYFGQGTQVTVSS
notes: not shown: hexahistidine tag
With B1, the “absorbance at 405 nm” value in test [10] worked out at 4 A405.

B2: VHH 5C4 (VHH)
VHH: QVQLQESGGGLVQPGGSLRLSCAASGFSLRYFGIGWFRQVAGKEREPVSCSNVRDGNTYYADSVKGRFTISRDNVRNTLYLQMNSLKPEDTAVYSCATTDCEATTWGTYRGYFGQGTQVTVSS
notes: not shown: hexahistidine tag
In the case of B2, the “absorbance at 405 nm” value in test [10] came to 4 A405.

B3: VHH 5G5 (VHH)
VHH: B2 VHH with V40A, P47G, V48I, T78M, S85N, E89D
notes: not shown: hexahistidine tag
As for B3, in test [10], the “absorbance at 405 nm” value was 4 A405.

B4: VHH 3E6 (VHH)
VHH: QVQLQESGGGLVQPGGTLSLSCAASGFNVRWYGMGWFRQAPGKEREGVACISALQETTAYADSVKGRFTLSRDNPKNTLSLQMNNLQPEDTGVYYCATTDCDDSSRMTYTSYLGQGTQVTVSS
notes: Purified hexahistidine-tagged VHH from E. coli periplasm; not shown: hexahistidine tag
For B4, the “absorbance at 405 nm” value in [10] was 4 A405.

B5: VHH 3E6 coupled to polyurea microcapsules (VHH)
VHH: B4 VHH
modifications: coupled by carbodiimide (EDC) chemistry to carboxylic acid groups on the microcapsule shell
notes: also called Monovalent VHH 3E6; monovalent VHH; not shown: hexahistidine tag
With B5, the “fold surface area above blank microcapsules” value in [11] stood at 6 fold.

B6: VHH 7D2 (VHH)
VHH: QVQLQESGGGLVQPGRSLKVACAAAGFSLRYYGIGWFRQAPGKEREAVSCTSANDGSTYYRDSVRGRFTISRDDGKNTVYLQMNRLKPEDTAVYYCATTDCDATSWGTWINYYGQGTQVTVSS
notes: not shown: hexahistidine tag
In the case of B6, in test [10], the “absorbance at 405 nm” value is 4 A405.

B7: Bivalent VHH 3E6 coupled to polyurea microcapsules (VHH)
chain: QVQLQESGGGLVQPGGTLSLSCAASGFNVRWYGMGWFRQAPGKEREGVACISALQETTAYADSVKGRFTLSRDNPKNTLSLQMNNLQPEDTGVYYCATTDCDDSSRMTYTSYLGQGTQVTVSSGGGGSGGGSQVQLQESGGGLVQPGGTLSLSCAASGFNVRWYGMGWFRQAPGKEREGVACISALQETTAYADSVKGRFTLSRDNPKNTLSLQMNNLQPEDTGVYYCATTDCDDSSRMTYTSYLGQGTQVTVSSAAAEQKLISEEDLNGAAHHHHHH
modifications: coupled by carbodiimide chemistry to the microcapsule shell
As for B7, the surface area of bound microcapsules (area (unit not given)) in [12] amounted to 22.1; in test [13] it was 45.7; in [14], 15. Moreover, the “fold surface area above blank microcapsules” value in [11] is 15 fold.
